Laboratory results from article PMC7110144.

What was measured:
[1] = target: His-CAL1(1-160) (Drosophila melanogaster) (UniProt Q9VEN2); assay: SEC-MALS; complexes refolded from recombinant proteins; Superdex 200 increase 10/300 GL, 50 mM HEPES pH 8.0, 2 M NaCl, 1 mM TCEP, 22°C; 100 µl of 1-5 mg/ml
[2] = target: His-CAL1(1-50) (Drosophila melanogaster) (UniProt Q9VEN2); assay: as above
Sequence of His-CAL1(1-50) (Drosophila melanogaster) (Q9VEN2 entry or part of it): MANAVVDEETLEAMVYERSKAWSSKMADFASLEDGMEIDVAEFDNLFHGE

Sequence of His-CAL1(1-160) (Drosophila melanogaster) (Q9VEN2 entry or part of it): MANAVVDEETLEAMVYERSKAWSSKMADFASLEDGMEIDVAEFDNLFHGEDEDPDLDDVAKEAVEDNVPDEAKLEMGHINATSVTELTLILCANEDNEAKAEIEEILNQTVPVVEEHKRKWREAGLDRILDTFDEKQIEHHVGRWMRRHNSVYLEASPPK
Sequence of CENP-A(144-225)-H4 (Q9V6Q2 144-225, one chain of several): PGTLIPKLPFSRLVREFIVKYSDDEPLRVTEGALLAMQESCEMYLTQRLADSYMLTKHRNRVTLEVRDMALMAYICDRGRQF
Sequence of CENP-A(101-225)-H4 (from UniProt Q9V6Q2 101-225; P84040 1-103) (complex; other documents disagree on this pair) (Q9V6Q2 101-225, one chain of several): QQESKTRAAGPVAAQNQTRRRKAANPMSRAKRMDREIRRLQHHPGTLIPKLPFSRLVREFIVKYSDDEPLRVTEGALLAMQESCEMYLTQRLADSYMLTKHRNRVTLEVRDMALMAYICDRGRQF
Sequence of CENP-A(101-225)-H4 (from UniProt Q9V6Q2 101-225; P84040 1-103) (complex) (Q9V6Q2 101-225, one chain of several): as above

Substance | stoichiometry N (CAL1:CENP-A:H4 = 1:1:1) [1] | stoichiometry N (CAL1:CENP-A:H4 = 1:1:1) [2]
CENP-A(144-225)-H4 (from UniProt Q9V6Q2 144-225; P84040 1-103) (complex; other documents disagree on this pair) | 1 | –
CENP-A(101-225)-H4 (from UniProt Q9V6Q2 101-225; P84040 1-103) (complex; other documents disagree on this pair) | 1 | –
CENP-A(101-225)-H4 (from UniProt Q9V6Q2 101-225; P84040 1-103) (complex) | – | 1
